Among the data in the supplement of paper PMC10065799, “High-throughput profiling of sequence recognition by tyrosine kinases and SH2 domains using bacterial peptide display” (eLife, 2023) are SH2 binding enrichment and phosphorylation enrichment values, retold here.

Series [1] has as its target c-Src SH2. As to the kind of experiment: SH2 binding enrichment of the phosphorylated peptide, bacterial display (enrichment ratio); higher = better substrate or ligand; peptides without Tyr show the background.
For series [2], the target named is Grb2 SH2 (UniProt P62993). Described as above.
The target in series [3] is SHP2-C SH2. Described as above.
The test system of series [4] is Fer (mouse). As to the kind of experiment: phosphorylation enrichment, bacterial display (enrichment ratio); higher = better substrate or ligand; peptides without Tyr show the background.
The target of series [5] is Hck (UniProt P08631). Described as above.
Series [6] concerns c-Src. The description is as above.
The target of series [7] is MERTK (UniProt Q12866). The description is as above.
Series [8] addresses Fes (UniProt P07332). The description is as above.
For series [9], the target named is Jak2 (UniProt O60674). The description is as above.
In series [10] the target is FGFR3 (UniProt P22607). The series is described as above.
Series [11] has as its target FGFR1 (UniProt P11362). The description is as above.
Series [12] has as its target Fyn (UniProt P06241). The series is described as above.
The target of series [13] is EPHB1 (UniProt P54762). Described as above.
The test system of series [14] is AncSZ. Described as above.
Series [15] relates to c-Abl (mouse). The series is described as above.
Series [16] concerns the target EPHB2 (UniProt P29323). The series is described as above.
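For SH2 binding enrichment of the phosphorylated peptide, bacterial display in this document: peptide library displayed on the E. coli surface as eCPX fusions, selected cells deep-sequenced, score is each peptide's frequency after selection divided by its frequency in the input.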
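For phosphorylation enrichment, bacterial display in this document: 11-residue human phosphosite peptides and single-mutation variants displayed on the E. coli surface, counted by deep sequencing, each peptide's frequency after selection divided by its frequency in the unselected input library; frequency after pTyr selection over input frequency; kinase dosed for 20-30% of maximal phosphorylation in three min.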

Chain of Fyn (P06241 whole entry, looked up): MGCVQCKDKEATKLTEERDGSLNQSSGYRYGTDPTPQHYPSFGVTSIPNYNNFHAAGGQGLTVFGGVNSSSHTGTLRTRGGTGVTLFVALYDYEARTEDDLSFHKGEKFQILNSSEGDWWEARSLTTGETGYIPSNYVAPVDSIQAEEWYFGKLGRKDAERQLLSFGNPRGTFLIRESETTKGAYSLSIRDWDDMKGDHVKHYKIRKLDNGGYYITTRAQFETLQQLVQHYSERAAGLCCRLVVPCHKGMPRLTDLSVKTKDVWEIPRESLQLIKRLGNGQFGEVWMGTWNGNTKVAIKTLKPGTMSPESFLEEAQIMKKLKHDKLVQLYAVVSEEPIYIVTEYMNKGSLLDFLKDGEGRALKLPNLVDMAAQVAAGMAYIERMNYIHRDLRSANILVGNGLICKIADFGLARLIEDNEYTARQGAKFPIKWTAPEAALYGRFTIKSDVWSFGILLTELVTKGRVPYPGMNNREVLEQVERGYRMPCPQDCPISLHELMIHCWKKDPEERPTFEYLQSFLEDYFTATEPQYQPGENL
Chain of EPHB2 (P29323 whole entry, looked up, the tested form may be a part): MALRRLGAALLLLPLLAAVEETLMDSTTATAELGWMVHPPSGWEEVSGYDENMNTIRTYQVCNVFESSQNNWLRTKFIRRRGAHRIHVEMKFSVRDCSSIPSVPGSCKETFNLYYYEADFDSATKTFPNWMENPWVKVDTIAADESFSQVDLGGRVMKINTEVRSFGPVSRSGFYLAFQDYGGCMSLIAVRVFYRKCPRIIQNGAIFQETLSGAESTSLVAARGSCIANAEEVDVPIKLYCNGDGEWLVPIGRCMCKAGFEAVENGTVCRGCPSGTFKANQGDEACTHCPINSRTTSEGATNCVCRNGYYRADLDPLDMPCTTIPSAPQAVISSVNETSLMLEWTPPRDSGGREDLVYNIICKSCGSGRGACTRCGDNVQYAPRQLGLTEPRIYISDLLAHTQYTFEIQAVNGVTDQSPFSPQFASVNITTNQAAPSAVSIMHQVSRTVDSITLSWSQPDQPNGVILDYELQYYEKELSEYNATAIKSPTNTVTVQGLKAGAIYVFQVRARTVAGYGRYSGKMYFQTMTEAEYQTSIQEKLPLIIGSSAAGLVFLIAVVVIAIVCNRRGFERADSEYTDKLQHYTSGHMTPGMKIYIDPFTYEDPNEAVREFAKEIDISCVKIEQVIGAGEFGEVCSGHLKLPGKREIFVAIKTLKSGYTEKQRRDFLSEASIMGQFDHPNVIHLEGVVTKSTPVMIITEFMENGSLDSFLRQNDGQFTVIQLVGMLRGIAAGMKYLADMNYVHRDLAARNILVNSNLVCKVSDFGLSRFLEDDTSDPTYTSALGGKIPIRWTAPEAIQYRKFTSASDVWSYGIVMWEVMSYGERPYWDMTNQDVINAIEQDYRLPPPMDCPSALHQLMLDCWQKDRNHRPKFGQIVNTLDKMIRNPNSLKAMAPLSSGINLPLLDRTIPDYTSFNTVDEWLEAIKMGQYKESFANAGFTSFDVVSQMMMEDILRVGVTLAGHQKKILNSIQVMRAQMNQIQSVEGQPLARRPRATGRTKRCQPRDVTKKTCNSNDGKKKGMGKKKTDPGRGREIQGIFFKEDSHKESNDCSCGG
Chain of EPHB1 (P54762 whole entry, looked up): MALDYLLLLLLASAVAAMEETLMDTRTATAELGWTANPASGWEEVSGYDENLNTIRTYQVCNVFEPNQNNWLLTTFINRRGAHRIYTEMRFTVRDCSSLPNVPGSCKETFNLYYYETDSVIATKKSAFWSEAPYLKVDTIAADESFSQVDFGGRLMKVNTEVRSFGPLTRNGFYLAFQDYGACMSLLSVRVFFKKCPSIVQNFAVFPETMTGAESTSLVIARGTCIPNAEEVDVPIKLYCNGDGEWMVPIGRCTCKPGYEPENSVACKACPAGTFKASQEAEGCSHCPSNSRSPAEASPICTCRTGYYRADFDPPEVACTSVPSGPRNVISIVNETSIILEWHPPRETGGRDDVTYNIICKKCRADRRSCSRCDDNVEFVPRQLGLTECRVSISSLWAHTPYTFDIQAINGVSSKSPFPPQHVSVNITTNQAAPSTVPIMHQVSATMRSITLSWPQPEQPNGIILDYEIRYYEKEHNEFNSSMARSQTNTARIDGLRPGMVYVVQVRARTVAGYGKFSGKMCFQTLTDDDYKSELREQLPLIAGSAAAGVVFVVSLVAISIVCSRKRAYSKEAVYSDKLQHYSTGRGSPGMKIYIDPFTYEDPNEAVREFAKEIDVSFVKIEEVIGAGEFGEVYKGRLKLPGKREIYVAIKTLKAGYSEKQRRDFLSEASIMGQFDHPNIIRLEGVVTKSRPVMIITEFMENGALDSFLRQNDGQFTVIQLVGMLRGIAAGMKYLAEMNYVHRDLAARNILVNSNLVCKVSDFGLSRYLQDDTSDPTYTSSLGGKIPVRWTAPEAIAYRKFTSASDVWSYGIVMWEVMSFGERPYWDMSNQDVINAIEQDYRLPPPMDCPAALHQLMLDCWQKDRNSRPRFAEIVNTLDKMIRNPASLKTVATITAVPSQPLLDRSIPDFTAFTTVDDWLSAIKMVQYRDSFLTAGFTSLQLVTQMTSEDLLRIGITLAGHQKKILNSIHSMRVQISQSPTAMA
Chain of Jak2 (O60674 whole entry, looked up): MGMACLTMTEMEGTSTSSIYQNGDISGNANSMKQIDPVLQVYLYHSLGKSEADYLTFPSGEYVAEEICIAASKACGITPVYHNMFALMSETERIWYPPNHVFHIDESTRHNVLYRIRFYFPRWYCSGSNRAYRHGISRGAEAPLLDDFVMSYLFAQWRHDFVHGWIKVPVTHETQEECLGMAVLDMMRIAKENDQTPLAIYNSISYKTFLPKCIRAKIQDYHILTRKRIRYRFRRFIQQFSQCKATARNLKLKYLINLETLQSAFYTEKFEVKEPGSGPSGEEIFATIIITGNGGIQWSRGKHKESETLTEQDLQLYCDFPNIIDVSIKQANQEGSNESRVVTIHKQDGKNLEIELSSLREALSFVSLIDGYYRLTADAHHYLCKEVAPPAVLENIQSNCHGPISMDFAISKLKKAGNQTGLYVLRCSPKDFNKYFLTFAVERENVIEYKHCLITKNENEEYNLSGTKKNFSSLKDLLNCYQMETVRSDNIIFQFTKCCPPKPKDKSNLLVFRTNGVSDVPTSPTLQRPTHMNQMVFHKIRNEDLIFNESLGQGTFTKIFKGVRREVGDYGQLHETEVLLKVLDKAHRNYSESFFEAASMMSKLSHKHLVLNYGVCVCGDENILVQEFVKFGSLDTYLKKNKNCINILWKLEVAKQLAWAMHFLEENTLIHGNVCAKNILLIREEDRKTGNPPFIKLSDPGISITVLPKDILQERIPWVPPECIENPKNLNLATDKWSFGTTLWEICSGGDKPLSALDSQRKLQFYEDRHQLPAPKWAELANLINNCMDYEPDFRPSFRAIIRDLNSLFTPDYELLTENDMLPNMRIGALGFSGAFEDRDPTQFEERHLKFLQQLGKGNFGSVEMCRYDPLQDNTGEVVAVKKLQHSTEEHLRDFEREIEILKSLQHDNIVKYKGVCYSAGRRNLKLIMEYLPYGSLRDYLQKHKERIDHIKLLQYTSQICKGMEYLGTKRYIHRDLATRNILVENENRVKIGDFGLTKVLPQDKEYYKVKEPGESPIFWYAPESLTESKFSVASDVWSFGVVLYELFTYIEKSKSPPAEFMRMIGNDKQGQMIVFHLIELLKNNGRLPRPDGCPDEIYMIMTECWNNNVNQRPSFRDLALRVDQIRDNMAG
Chain of Fes (P07332 whole entry, looked up): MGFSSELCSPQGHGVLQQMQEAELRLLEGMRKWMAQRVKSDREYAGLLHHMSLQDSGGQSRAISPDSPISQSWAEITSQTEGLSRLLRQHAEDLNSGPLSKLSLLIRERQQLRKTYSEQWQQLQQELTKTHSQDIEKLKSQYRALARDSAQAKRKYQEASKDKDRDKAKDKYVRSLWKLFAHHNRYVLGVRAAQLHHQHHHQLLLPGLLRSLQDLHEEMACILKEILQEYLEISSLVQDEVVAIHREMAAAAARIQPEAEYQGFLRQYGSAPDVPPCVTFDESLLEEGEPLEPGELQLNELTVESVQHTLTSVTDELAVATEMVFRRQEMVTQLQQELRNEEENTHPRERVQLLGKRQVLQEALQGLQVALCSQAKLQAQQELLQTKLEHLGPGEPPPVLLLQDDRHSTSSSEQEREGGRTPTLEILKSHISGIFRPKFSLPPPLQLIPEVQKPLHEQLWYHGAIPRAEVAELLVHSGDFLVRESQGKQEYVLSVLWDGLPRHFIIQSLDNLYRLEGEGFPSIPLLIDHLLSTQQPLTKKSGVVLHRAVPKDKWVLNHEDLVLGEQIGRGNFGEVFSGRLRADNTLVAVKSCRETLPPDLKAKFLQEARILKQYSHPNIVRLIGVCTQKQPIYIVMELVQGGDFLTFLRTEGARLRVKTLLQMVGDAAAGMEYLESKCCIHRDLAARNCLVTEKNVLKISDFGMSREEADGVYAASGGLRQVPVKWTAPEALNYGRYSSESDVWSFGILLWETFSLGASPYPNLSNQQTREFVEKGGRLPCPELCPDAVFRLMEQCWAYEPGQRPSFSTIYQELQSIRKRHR
Chain of Grb2 SH2 (P62993 whole entry, looked up): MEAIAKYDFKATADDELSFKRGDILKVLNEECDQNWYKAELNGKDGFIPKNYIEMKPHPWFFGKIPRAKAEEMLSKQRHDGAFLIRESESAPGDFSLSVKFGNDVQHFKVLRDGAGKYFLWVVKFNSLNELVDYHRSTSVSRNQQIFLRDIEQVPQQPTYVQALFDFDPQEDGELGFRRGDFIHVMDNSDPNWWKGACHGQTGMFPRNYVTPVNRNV

YGGLRCGYGVL [KRTAP20-2_Y13_Y13C]: the SH2 binding enrichment in series [1] came to 0.569; in series [2], 0.829; in series [3], 0.642. Also, the phosphorylation enrichment in series [4] came to 0.473; in series [5] it was 1.5; in series [6], 1.05; in series [7], 0.369; in [8], 1.01; in series [9], 0.794. The phosphorylation enrichment in series [10] is 0.632; in series [11], 0.826; in series [12] it was 1; in [13], 0.623; in series [14] it was 0.857; in [15], 0.589. Moreover, the phosphorylation enrichment in [16] is 0.543.
As for SDMGQYQCLVF [AXL_Y115_T112M], the results for the SH2 binding enrichment in [1], in series [2] and in series [3] were 0.437, 0.726 and 0.916, respectively. In addition, the phosphorylation enrichment is 3.38 in series [4]; 3.14 in [5]; 1.97 in series [6]; 1.84 in series [7]; 1.22 in [8]; 0.933 in series [9]. Also, the phosphorylation enrichment in series [10] stood at 1.89; in series [11] it was 2.05; in series [12], 2.35; in series [13], 0.923; in series [14] it was 1.3; in series [15], 1.57. Moreover, in series [16], the phosphorylation enrichment was found to be 0.991.
As for CGTPEYRAPEI [PRKACA_Y205_L206R], the SH2 binding enrichment in series [1] is 0.52; in series [2], 0.767; in series [3], 0.735. Also, the phosphorylation enrichment was 0.582 in [4]; 0.549 in series [5]; 0.432 in series [6]; 0.467 in series [7]; 1.35 in [8]; 0.984 in [9]. The phosphorylation enrichment was 0.825 in series [10]; 0.603 in series [11]; 0.517 in series [12]; 0.687 in [13]; 1.17 in [14]; 3.88 in series [15]. For the same sequence, in series [16], the phosphorylation enrichment worked out at 0.605.
Turning to GHLYANDWISI [BEST1_Y227_Y227N], the SH2 binding enrichment in series [1] was determined as 18.4; in series [2], 24.5; in [3], 3.5. Also, the phosphorylation enrichment in series [4] was 0.527; in series [5], 0.575; in [6] it was 0.683; in series [7], 3.32; in series [8] it was 0.871; in series [9], 0.878. The phosphorylation enrichment came out at 0.674 in series [10]; 0.609 in series [11]; 0.734 in series [12]; 0.778 in series [13]; 0.819 in series [14]; 0.587 in [15]. Besides, in [16], the phosphorylation enrichment turned out to be 0.619.
Regarding PGIRMYQVQYN [LRFN1_Y454], the SH2 binding enrichment in series [1] is 1.02; in series [2] it was 1.22; in series [3], 1.37. Besides, the phosphorylation enrichment in series [4] was 0.446; in series [5], 0.503; in series [6], 0.727; in series [7] it was 0.764; in series [8] it was 1.39; in series [9] it was 1.24. Moreover, the phosphorylation enrichment was 0.863 in series [10]; 0.67 in [11]; 0.815 in series [12]; 0.93 in series [13]; 1.06 in [14]; 0.995 in series [15]. The phosphorylation enrichment in series [16] was found to be 0.92.
For PYSSPYENSLI [EPOR_Y489_N487S], the SH2 binding enrichment was 5.18 in series [1], 2.51 in series [2] and 0.773 in series [3]. Further, the phosphorylation enrichment in series [4] was 2.52; in series [5], 0.705; in series [6], 0.875; in series [7], 0.683; in [8], 0.924; in [9] it was 0.929. The phosphorylation enrichment in series [10] came to 0.506; in [11] it was 0.527; in series [12], 0.668; in series [13] it was 0.39; in series [14] it was 0.83; in series [15] it was 0.902. For the same sequence, the phosphorylation enrichment in [16] was 0.596.
STTSDYQWDVS [MTDH_Y364]: the SH2 binding enrichment in [1] is 0.449; in series [2], 0.921; in series [3] it was 0.612. Also, the phosphorylation enrichment in series [4] was 0.476; in series [5], 0.508; in series [6], 0.407; in series [7], 0.387; in series [8], 1.22; in series [9], 1.05. Further, the phosphorylation enrichment in [10] came to 0.865; in [11], 0.659; in series [12], 0.54; in series [13], 0.741; in series [14], 1.23; in series [15], 0.782. The phosphorylation enrichment in series [16] was 0.615.
Consider DRSSLYLVAGP [KIAA1614_Y1083_N1078D], for which the SH2 binding enrichment worked out at 0.519 in [1], 0.781 in [2] and 0.685 in [3]. Besides, the phosphorylation enrichment in series [4] was 0.615; in series [5], 0.842; in [6] it was 0.749; in series [7], 1.33; in [8], 1.13; in [9], 1.08. For the same sequence, the phosphorylation enrichment in series [10] was 0.665; in [11], 0.593; in series [12], 0.523; in series [13] it was 0.709; in series [14] it was 1.25; in [15] it was 0.652. The phosphorylation enrichment in series [16] came to 0.833.
